In PMC10849588:

Target: GMPCPP-stabilized, fluorescently labeled, biotinylated microtubules (untreated) (UniProt P02550)

Substance: wild-type full-length Cin8, GFP- and 6x His-tagged (from UniProt P27895 1-1000) (natural protein)
- % of (+)-end movements, Clusters, 110 mM KCl: 41%
- % of (+)-end movements, Monomers (single molecules), 110 mM KCl: 29%
- % of total runs >60 s, Monomers (single molecules), 110 mM KCl: 17%
